The data set concerns the molecule itself. The experiment in a line: CD spectrometry of 300 uM peptide in phosphate buffer pH 7.5 (self-assembly into nanofiber).

B1: Glu-Phe-Ile-Val-Ile-Phe-Lys peptide (EK7aa) (peptide)
peptide: EFIVIFK
notes: Synthetic designed peptide that self-assembles into amyloid-like nanofibers
B1: the binding result is listed as “binds”.

Source of the values: patent US20060089489A1 (MATSUSHITA ELECTRIC INDUSTRIAL, published 2006).
